Results reported in paper PMC4434323.

Experiments:
[1] = molecular target: T1, ceh-34 (C10G8.6) (Caenorhabditis elegans) (UniProt Q94165)
T1 sequence: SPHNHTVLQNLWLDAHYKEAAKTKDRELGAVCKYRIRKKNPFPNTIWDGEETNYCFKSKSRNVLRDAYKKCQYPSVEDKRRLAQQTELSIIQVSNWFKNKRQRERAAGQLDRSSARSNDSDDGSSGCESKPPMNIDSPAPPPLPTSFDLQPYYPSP

[2] = molecular target: T2, med-2 (K04C2.6) (Caenorhabditis elegans) (UniProt G5EF25)
T2 sequence: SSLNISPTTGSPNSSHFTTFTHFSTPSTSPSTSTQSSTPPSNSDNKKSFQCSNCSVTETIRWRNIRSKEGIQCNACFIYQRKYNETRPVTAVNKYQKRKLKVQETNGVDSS

[3] = molecular target: ceh-37 (C37E2.5) (Caenorhabditis elegans) (UniProt Q93356)
[4] = molecular target: T3, C07E3.6 (C07E3.6) (Caenorhabditis elegans) (UniProt Q17792)
T3 sequence: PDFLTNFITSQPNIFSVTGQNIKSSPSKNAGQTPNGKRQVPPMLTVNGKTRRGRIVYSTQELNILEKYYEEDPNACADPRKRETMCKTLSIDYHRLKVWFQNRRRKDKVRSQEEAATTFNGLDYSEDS

[5] = molecular target: ceh-36 (C37E2.4) (Caenorhabditis elegans) (UniProt Q93352)
[6] = molecular target: T4, atf-6 (F45E6.2) (Caenorhabditis elegans) (UniProt Q20435)
T4 sequence: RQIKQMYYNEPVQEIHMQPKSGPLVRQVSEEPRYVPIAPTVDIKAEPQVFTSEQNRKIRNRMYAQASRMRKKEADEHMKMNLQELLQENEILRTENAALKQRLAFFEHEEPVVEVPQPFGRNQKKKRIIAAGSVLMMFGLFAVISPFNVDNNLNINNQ

[7] = tested on: ceh-53 (C09G12.1) (Caenorhabditis elegans)
[8] = molecular target: dmd-4 (C27C12.6) (Caenorhabditis elegans) (UniProt Q18248)
[9] = molecular target: T5, end-1 (F58E10.2) (Caenorhabditis elegans) (UniProt G5EDN4)
T5 sequence: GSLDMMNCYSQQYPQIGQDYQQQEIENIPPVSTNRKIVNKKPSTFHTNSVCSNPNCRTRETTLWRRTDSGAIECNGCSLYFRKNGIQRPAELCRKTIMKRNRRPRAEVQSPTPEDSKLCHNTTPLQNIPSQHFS

[10] = molecular target: T6, end-3 (F58E10.5) (Caenorhabditis elegans) (UniProt Q9XUW7)
T6 sequence: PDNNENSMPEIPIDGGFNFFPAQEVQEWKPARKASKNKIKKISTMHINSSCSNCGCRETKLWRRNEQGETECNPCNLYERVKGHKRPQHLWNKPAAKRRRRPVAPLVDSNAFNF

[11] = molecular target: T7, elt-6 (F52C12.5) (Caenorhabditis elegans) (UniProt G5EGN3)
T7 sequence: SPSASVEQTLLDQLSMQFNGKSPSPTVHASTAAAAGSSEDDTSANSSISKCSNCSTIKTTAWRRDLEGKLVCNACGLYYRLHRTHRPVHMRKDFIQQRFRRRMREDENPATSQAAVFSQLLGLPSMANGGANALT

[12] = molecular target: T8, C27D6.4 (C27D6.4) (Caenorhabditis elegans) (UniProt Q4JFH9)
T8 sequence: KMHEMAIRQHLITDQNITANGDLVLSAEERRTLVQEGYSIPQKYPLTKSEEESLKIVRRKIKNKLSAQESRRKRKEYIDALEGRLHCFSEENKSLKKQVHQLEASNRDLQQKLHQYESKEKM

[13] = molecular target: atf-7 (C07G2.2) (Caenorhabditis elegans) (UniProt Q86MD3)
Chain of atf-7 (C07G2.2) (Caenorhabditis elegans) (Q86MD3 339-508): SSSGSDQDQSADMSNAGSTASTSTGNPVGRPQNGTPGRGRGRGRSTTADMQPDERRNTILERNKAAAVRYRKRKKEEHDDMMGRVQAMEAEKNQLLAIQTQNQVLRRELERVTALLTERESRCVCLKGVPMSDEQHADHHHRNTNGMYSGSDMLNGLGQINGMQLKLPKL

Chain of ceh-37 (C37E2.5) (Caenorhabditis elegans) (Q93356 1-148): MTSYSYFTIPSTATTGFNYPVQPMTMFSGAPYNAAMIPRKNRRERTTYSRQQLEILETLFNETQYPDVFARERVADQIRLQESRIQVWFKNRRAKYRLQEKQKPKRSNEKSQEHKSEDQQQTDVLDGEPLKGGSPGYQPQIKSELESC
Chain of ceh-36 (C37E2.4) (Caenorhabditis elegans) (Q93352 6-165): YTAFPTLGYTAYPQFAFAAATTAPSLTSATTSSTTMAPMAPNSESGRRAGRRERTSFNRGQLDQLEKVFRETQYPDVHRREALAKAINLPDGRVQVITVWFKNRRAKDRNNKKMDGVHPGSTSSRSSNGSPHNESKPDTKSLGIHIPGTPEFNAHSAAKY
Chain of ceh-53 (C09G12.1) (Caenorhabditis elegans) (chain, as listed by the source): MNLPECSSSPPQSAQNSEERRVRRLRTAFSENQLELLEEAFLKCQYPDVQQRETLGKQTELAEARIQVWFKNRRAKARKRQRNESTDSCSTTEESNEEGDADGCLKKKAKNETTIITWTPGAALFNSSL
Chain of dmd-4 (C27C12.6) (Caenorhabditis elegans) (Q18248 1-114): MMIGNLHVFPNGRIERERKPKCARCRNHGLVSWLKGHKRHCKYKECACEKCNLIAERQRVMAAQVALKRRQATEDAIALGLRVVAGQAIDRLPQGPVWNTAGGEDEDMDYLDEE

GATATCCC (double strand) [8-mer GATATCCC]
binding signal (PBM E-score (-0.5 to 0.5)) [1]: 0.466

GAGTATAC (double strand) [8-mer GAGTATAC]
binding signal (PBM E-score (-0.5 to 0.5)) [2]: 0.499

AGGGTATC (double strand) [8-mer AGGGTATC]
binding signal (PBM E-score (-0.5 to 0.5)) [1]: 0.466

AGGGATTA (double strand) [8-mer AGGGATTA]
binding signal (PBM E-score (-0.5 to 0.5)) [3]: 0.487

AAGTATCA (double strand) [8-mer AAGTATCA]
binding signal (PBM E-score (-0.5 to 0.5)) [1]: 0.468

GCTAATTA (double strand) [8-mer GCTAATTA]
binding signal (PBM E-score (-0.5 to 0.5)) [4]: 0.496

GATACCCC (double strand) [8-mer GATACCCC]
binding signal (PBM E-score (-0.5 to 0.5)) [1]: 0.48

GGATTAAA (double strand) [8-mer GGATTAAA]
binding signal (PBM E-score (-0.5 to 0.5)) [3]: 0.488
binding signal (PBM E-score (-0.5 to 0.5)) [5]: 0.49

ACGTGGCC (double strand) [8-mer ACGTGGCC]
binding signal (PBM E-score (-0.5 to 0.5)) [6]: 0.471

CACGTCAG (double strand) [8-mer CACGTCAG]
binding signal (PBM E-score (-0.5 to 0.5)) [6]: 0.473

GGGGGATA (double strand) [8-mer GGGGGATA]
binding signal (PBM E-score (-0.5 to 0.5)) [1]: 0.463

ACGGATTA (double strand) [8-mer ACGGATTA]
binding signal (PBM E-score (-0.5 to 0.5)) [3]: 0.487
binding signal (PBM E-score (-0.5 to 0.5)) [7]: 0.494

CCACGTAG (double strand) [8-mer CCACGTAG]
binding signal (PBM E-score (-0.5 to 0.5)) [6]: 0.478

GGTATCAC (double strand) [8-mer GGTATCAC]
binding signal (PBM E-score (-0.5 to 0.5)) [1]: 0.476

AGTATACC (double strand) [8-mer AGTATACC]
binding signal (PBM E-score (-0.5 to 0.5)) [2]: 0.499

CGGTATAC (double strand) [8-mer CGGTATAC]
binding signal (PBM E-score (-0.5 to 0.5)) [2]: 0.495

GATAATCC (double strand) [8-mer GATAATCC]
binding signal (PBM E-score (-0.5 to 0.5)) [3]: 0.491

AATGATAC (double strand) [8-mer AATGATAC]
binding signal (PBM E-score (-0.5 to 0.5)) [1]: 0.461
binding signal (PBM E-score (-0.5 to 0.5)) [8]: 0.482

AGTATACG (double strand) [8-mer AGTATACG]
binding signal (PBM E-score (-0.5 to 0.5)) [2]: 0.496

GGGTATAC (double strand) [8-mer GGGTATAC]
binding signal (PBM E-score (-0.5 to 0.5)) [2]: 0.496

AGATAAGG (double strand) [8-mer AGATAAGG]
binding signal (PBM E-score (-0.5 to 0.5)) [9]: 0.484
binding signal (PBM E-score (-0.5 to 0.5)) [10]: 0.496

AGGATTAG (double strand) [8-mer AGGATTAG]
binding signal (PBM E-score (-0.5 to 0.5)) [7]: 0.496
binding signal (PBM E-score (-0.5 to 0.5)) [5]: 0.492

ACGTCAGA (double strand) [8-mer ACGTCAGA]
binding signal (PBM E-score (-0.5 to 0.5)) [6]: 0.476

GGGGATTA (double strand) [8-mer GGGGATTA]
binding signal (PBM E-score (-0.5 to 0.5)) [3]: 0.494
binding signal (PBM E-score (-0.5 to 0.5)) [7]: 0.497
binding signal (PBM E-score (-0.5 to 0.5)) [5]: 0.495

AGTATACA (double strand) [8-mer AGTATACA]
binding signal (PBM E-score (-0.5 to 0.5)) [2]: 0.498

CTTAATCC (double strand) [8-mer CTTAATCC]
binding signal (PBM E-score (-0.5 to 0.5)) [7]: 0.494
binding signal (PBM E-score (-0.5 to 0.5)) [5]: 0.489

TCTTATCA (double strand) [8-mer TCTTATCA]
binding signal (PBM E-score (-0.5 to 0.5)) [10]: 0.491
binding signal (PBM E-score (-0.5 to 0.5)) [11]: 0.495

ATTGATAC (double strand) [8-mer ATTGATAC]
binding signal (PBM E-score (-0.5 to 0.5)) [1]: 0.467
binding signal (PBM E-score (-0.5 to 0.5)) [8]: 0.487

AGGTATCA (double strand) [8-mer AGGTATCA]
binding signal (PBM E-score (-0.5 to 0.5)) [1]: 0.474

CAGTATAC (double strand) [8-mer CAGTATAC]
binding signal (PBM E-score (-0.5 to 0.5)) [2]: 0.498

GCCACGTA (double strand) [8-mer GCCACGTA]
binding signal (PBM E-score (-0.5 to 0.5)) [6]: 0.48
binding signal (PBM E-score (-0.5 to 0.5)) [12]: 0.497

ATGATATC (double strand) [8-mer ATGATATC]
binding signal (PBM E-score (-0.5 to 0.5)) [9]: 0.484
binding signal (PBM E-score (-0.5 to 0.5)) [1]: 0.476

TAATCCTA (double strand) [8-mer TAATCCTA]
binding signal (PBM E-score (-0.5 to 0.5)) [5]: 0.492

CACGTGGC (double strand) [8-mer CACGTGGC]
binding signal (PBM E-score (-0.5 to 0.5)) [6]: 0.464
binding signal (PBM E-score (-0.5 to 0.5)) [12]: 0.499

CCACGTCA (double strand) [8-mer CCACGTCA]
binding signal (PBM E-score (-0.5 to 0.5)) [13]: 0.496
binding signal (PBM E-score (-0.5 to 0.5)) [6]: 0.488
binding signal (PBM E-score (-0.5 to 0.5)) [12]: 0.496

ACGTGGCT (double strand) [8-mer ACGTGGCT]
binding signal (PBM E-score (-0.5 to 0.5)) [6]: 0.466
binding signal (PBM E-score (-0.5 to 0.5)) [12]: 0.492

GGAGATAA (double strand) [8-mer GGAGATAA]
binding signal (PBM E-score (-0.5 to 0.5)) [10]: 0.49

GTATACCA (double strand) [8-mer GTATACCA]
binding signal (PBM E-score (-0.5 to 0.5)) [2]: 0.495

ACTAATCC (double strand) [8-mer ACTAATCC]
binding signal (PBM E-score (-0.5 to 0.5)) [7]: 0.497
binding signal (PBM E-score (-0.5 to 0.5)) [5]: 0.49

AGGTATAC (double strand) [8-mer AGGTATAC]
binding signal (PBM E-score (-0.5 to 0.5)) [2]: 0.496

AAAGTATA (double strand) [8-mer AAAGTATA]
binding signal (PBM E-score (-0.5 to 0.5)) [2]: 0.496

ATAATCCG (double strand) [8-mer ATAATCCG]
binding signal (PBM E-score (-0.5 to 0.5)) [3]: 0.49

CTAATCCC (double strand) [8-mer CTAATCCC]
binding signal (PBM E-score (-0.5 to 0.5)) [7]: 0.496
binding signal (PBM E-score (-0.5 to 0.5)) [5]: 0.49

CCACGTGG (double strand) [8-mer CCACGTGG]
binding signal (PBM E-score (-0.5 to 0.5)) [6]: 0.48
binding signal (PBM E-score (-0.5 to 0.5)) [12]: 0.499

ATATCCCC (double strand) [8-mer ATATCCCC]
binding signal (PBM E-score (-0.5 to 0.5)) [1]: 0.474

GTATACTA (double strand) [8-mer GTATACTA]
binding signal (PBM E-score (-0.5 to 0.5)) [2]: 0.499

TAATCCGA (double strand) [8-mer TAATCCGA]
binding signal (PBM E-score (-0.5 to 0.5)) [3]: 0.489

CAGATAAG (double strand) [8-mer CAGATAAG]
binding signal (PBM E-score (-0.5 to 0.5)) [10]: 0.491

AGTAATTA (double strand) [8-mer AGTAATTA]
binding signal (PBM E-score (-0.5 to 0.5)) [4]: 0.494

AGATAAGC (double strand) [8-mer AGATAAGC]
binding signal (PBM E-score (-0.5 to 0.5)) [10]: 0.493

AGAGATAA (double strand) [8-mer AGAGATAA]
binding signal (PBM E-score (-0.5 to 0.5)) [10]: 0.492

GGTATACC (double strand) [8-mer GGTATACC]
binding signal (PBM E-score (-0.5 to 0.5)) [2]: 0.496

ACCACGTA (double strand) [8-mer ACCACGTA]
binding signal (PBM E-score (-0.5 to 0.5)) [6]: 0.457

AGTATACT (double strand) [8-mer AGTATACT]
binding signal (PBM E-score (-0.5 to 0.5)) [2]: 0.5

CGGATTAG (double strand) [8-mer CGGATTAG]
binding signal (PBM E-score (-0.5 to 0.5)) [7]: 0.496

AAGATAAG (double strand) [8-mer AAGATAAG]
binding signal (PBM E-score (-0.5 to 0.5)) [10]: 0.493

GAGTATCA (double strand) [8-mer GAGTATCA]
binding signal (PBM E-score (-0.5 to 0.5)) [1]: 0.46

AGATAACG (double strand) [8-mer AGATAACG]
binding signal (PBM E-score (-0.5 to 0.5)) [10]: 0.49

ACGTGGCA (double strand) [8-mer ACGTGGCA]
binding signal (PBM E-score (-0.5 to 0.5)) [6]: 0.477
binding signal (PBM E-score (-0.5 to 0.5)) [12]: 0.499

AGTATCCA (double strand) [8-mer AGTATCCA]
binding signal (PBM E-score (-0.5 to 0.5)) [2]: 0.495

AAGTATAC (double strand) [8-mer AAGTATAC]
binding signal (PBM E-score (-0.5 to 0.5)) [2]: 0.499

CTTATCTC (double strand) [8-mer CTTATCTC]
binding signal (PBM E-score (-0.5 to 0.5)) [10]: 0.496

GGGTATCA (double strand) [8-mer GGGTATCA]
binding signal (PBM E-score (-0.5 to 0.5)) [1]: 0.49

ATGATACC (double strand) [8-mer ATGATACC]
binding signal (PBM E-score (-0.5 to 0.5)) [1]: 0.481

AGATAAGA (double strand) [8-mer AGATAAGA]
binding signal (PBM E-score (-0.5 to 0.5)) [9]: 0.484
binding signal (PBM E-score (-0.5 to 0.5)) [10]: 0.496

CTTATCTA (double strand) [8-mer CTTATCTA]
binding signal (PBM E-score (-0.5 to 0.5)) [10]: 0.493

GAGATAAC (double strand) [8-mer GAGATAAC]
binding signal (PBM E-score (-0.5 to 0.5)) [10]: 0.487

ATCTTATC (double strand) [8-mer ATCTTATC]
binding signal (PBM E-score (-0.5 to 0.5)) [9]: 0.495
binding signal (PBM E-score (-0.5 to 0.5)) [10]: 0.497
